Source: US20090149389A1 (PURDUE RESEARCH FOUNDATION, published 2009)

Legend:
Test in all cases: cell-based or functional assay
ROCK-1 (h) = ROCK-1 (h) (human (h), UniProt Q13464 17-535, limits assumed)
MKK6 (h) = molecular target: T1, MKK6 (h) (human (h), UniProt P52564 1-334, limits assumed)
T1 sequence (looked up): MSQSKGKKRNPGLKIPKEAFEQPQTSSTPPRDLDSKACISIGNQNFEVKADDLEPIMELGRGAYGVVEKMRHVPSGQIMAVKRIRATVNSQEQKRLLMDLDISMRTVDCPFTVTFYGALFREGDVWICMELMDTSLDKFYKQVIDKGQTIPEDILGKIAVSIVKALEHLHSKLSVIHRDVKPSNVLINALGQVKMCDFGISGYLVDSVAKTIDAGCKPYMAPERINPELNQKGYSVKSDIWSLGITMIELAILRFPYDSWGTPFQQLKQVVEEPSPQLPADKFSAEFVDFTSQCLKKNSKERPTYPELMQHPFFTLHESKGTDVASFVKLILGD

JNK1α1 (h) = JNK1α1 (h) (human (h), UniProt P45983-2 1-384)
TrkA (h) = TrkA (h) (human (h), UniProt P04629 441-796, limits assumed)
TrkA (h), sequence (P04629 441-796 limits assumed): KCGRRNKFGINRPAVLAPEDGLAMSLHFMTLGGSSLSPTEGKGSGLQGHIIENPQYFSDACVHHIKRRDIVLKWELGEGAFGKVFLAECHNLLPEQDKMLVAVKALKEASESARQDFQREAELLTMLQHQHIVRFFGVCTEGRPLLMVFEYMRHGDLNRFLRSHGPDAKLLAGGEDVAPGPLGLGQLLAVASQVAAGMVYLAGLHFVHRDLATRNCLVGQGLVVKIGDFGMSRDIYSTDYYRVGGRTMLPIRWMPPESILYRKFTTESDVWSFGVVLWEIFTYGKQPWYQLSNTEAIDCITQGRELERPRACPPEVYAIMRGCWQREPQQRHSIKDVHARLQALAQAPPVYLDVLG

AMPK (r) = AMPK (r) (rat (r), UniProt Q09137 1-552, limits assumed)
PKB β (h) = PKB β (h) (human (h), UniProt P31751 1-481, limits assumed)
PKB β (h), sequence (P31751 whole entry): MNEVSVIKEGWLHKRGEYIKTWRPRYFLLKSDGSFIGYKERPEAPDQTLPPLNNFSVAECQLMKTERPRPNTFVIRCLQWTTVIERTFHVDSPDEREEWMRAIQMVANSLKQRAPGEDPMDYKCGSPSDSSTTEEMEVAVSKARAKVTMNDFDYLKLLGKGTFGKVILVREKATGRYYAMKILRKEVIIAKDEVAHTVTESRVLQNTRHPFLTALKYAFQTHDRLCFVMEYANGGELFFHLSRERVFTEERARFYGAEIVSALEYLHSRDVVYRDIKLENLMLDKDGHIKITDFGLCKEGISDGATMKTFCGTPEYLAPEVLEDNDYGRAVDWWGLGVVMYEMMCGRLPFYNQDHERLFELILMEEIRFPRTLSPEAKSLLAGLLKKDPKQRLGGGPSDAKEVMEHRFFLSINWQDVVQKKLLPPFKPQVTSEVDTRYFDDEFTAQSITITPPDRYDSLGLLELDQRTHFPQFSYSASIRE

PKCδ (h) = PKCδ (h) (human (h), UniProt Q05655 1-676)
PKCδ (h), sequence (Q05655 whole entry, stated change not applied): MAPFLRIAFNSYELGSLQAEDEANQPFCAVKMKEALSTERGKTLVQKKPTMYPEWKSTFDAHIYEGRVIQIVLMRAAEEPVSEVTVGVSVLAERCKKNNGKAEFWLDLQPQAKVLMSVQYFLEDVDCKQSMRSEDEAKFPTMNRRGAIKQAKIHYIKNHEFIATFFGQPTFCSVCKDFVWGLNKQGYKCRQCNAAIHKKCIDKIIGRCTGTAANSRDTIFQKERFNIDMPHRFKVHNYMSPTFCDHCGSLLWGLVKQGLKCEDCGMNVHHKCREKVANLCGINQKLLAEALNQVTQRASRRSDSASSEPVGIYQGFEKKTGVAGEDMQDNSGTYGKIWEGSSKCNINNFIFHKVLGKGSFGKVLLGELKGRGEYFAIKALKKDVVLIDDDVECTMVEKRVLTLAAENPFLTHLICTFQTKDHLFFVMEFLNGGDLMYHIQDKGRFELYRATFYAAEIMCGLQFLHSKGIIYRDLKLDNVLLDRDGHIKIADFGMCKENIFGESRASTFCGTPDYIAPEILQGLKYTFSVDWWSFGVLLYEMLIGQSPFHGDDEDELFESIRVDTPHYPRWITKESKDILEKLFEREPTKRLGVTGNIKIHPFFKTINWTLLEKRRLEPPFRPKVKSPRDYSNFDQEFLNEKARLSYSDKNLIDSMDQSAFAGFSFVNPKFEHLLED

CDKI/cyclinB (h) = CDKI/cyclinB (h) (human (h), UniProt P06493 1-297)
MSK2 (h) = MSK2 (h) (human (h), UniProt O75676 1-772, limits assumed)
L1MK1 (h) = L1MK1 (h) (human (h), UniProt P53667 285-638, limits assumed)
L1MK1 (h), sequence (P53667 285-638 limits assumed): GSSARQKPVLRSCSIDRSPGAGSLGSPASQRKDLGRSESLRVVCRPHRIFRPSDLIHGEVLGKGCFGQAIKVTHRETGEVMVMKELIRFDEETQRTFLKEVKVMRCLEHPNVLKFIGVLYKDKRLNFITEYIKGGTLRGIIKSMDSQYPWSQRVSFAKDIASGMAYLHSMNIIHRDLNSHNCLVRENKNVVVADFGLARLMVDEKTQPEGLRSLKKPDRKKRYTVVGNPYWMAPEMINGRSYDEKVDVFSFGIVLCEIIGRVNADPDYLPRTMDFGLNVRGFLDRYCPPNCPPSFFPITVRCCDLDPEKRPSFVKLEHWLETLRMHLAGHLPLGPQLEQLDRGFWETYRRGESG

MEKI (h) = MEKI (h) (human (h), UniProt Q02750 1-393)
Src(1-530) (h) = Src(1-530) (h) (human (h), UniProt P12931 1-530)
PKG1β (h) = molecular target: T2, PKG1β (h) (human (h), UniProt Q13976-2 1-686)
T2 sequence (looked up): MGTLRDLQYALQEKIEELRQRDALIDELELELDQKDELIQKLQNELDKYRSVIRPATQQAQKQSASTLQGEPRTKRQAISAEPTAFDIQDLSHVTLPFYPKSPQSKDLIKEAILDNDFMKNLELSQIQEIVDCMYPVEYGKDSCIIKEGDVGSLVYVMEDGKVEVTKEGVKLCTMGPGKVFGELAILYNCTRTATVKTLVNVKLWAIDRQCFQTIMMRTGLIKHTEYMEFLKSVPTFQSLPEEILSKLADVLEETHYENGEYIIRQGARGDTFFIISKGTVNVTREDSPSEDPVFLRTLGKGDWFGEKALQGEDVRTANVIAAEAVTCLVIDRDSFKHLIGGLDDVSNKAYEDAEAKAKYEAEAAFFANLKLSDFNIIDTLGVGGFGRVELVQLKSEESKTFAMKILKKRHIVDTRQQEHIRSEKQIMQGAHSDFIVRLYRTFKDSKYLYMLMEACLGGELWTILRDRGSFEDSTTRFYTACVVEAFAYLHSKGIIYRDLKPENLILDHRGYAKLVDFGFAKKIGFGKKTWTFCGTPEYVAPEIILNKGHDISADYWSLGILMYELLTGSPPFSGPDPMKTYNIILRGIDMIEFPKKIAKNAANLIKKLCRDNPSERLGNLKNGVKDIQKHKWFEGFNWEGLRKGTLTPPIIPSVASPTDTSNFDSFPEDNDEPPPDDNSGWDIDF

Rsk2 (h) = Rsk2 (h) (human (h), UniProt P51812 1-740)
Rsk2 (h), sequence (P51812 whole entry): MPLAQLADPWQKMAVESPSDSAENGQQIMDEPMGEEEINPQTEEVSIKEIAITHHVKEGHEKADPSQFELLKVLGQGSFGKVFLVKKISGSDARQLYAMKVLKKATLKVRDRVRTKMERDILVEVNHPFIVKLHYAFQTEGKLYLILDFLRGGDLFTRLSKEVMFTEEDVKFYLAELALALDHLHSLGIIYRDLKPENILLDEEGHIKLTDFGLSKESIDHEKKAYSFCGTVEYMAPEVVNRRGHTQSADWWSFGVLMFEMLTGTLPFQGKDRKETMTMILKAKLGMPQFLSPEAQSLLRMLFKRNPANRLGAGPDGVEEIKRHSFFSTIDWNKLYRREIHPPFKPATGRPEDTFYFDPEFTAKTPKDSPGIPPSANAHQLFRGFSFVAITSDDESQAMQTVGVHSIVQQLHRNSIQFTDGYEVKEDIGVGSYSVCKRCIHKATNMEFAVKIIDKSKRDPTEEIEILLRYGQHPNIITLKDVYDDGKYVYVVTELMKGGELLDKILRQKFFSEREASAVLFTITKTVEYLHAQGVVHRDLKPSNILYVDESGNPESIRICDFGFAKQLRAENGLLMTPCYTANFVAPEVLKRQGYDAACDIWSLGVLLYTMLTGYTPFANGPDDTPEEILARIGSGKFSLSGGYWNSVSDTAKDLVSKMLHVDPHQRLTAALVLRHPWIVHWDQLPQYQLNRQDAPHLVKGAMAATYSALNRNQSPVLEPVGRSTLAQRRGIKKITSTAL

Lck (h) = Lck (h) (human (h), UniProt P06239 1-509)
Met (h) = Met (h) (human (h), UniProt P08581 974-1390, limits assumed)
Met (h), sequence (P08581 974-1390 limits assumed): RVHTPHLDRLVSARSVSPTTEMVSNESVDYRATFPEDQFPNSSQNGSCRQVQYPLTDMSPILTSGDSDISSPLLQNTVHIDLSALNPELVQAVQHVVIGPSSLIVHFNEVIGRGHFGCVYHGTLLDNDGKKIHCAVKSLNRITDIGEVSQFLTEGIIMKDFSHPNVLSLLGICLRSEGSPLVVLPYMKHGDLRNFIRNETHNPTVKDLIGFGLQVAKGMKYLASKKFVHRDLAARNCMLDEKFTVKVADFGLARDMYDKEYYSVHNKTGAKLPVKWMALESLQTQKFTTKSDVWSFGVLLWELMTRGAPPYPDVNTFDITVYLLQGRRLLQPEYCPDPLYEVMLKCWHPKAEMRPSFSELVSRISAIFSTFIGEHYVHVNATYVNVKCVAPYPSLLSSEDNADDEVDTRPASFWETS

Flt3 (h) = molecular target: T3, Flt3 (h) (human (h), UniProt P36888 564-993, limits assumed)
T3 sequence (looked up): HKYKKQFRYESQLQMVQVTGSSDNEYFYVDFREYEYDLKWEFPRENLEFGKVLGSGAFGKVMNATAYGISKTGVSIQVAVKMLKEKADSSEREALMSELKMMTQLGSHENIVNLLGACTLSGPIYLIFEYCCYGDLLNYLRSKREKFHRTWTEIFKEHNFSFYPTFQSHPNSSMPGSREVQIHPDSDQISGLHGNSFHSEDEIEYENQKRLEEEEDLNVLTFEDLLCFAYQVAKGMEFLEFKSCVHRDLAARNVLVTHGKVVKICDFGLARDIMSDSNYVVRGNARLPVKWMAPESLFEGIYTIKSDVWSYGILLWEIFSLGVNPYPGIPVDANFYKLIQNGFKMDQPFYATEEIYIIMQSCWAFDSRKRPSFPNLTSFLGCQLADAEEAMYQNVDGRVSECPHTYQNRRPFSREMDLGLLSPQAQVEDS

SAPK2 a (h) = SAPK2 a (h) (human (h), UniProt Q16539 1-360)
SAPK2 a (h), sequence (Q16539 whole entry): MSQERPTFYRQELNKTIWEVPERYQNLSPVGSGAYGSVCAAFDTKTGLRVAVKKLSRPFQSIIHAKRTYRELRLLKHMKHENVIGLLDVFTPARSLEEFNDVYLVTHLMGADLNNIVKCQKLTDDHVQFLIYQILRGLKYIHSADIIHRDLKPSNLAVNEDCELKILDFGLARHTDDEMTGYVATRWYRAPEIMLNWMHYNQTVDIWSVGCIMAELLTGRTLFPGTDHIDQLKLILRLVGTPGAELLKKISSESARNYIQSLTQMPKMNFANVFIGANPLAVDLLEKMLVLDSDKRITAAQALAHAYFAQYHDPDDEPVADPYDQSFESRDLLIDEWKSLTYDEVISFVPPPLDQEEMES

PDGFRβ (h) = PDGFRβ (h) (human (h), UniProt P09619 558-1106, limits assumed)
PDGFRβ (h), sequence (P09619 558-1106 limits assumed): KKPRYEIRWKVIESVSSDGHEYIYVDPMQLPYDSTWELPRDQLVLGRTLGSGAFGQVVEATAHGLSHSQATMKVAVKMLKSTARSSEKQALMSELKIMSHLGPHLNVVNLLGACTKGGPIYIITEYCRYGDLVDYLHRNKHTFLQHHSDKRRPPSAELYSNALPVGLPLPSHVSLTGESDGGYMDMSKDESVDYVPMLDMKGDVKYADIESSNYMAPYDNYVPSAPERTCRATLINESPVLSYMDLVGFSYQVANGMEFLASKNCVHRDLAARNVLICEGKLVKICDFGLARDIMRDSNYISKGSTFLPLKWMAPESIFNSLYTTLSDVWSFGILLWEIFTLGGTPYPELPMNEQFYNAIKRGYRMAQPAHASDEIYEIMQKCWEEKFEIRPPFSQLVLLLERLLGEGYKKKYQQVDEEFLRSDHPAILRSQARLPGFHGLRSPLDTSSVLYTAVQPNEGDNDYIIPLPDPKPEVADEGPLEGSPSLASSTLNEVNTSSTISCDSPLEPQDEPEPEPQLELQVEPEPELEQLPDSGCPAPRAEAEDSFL

cKit (h) = cKit (h) (human (h), UniProt P10721 544-976, limits assumed)
CK2 (h) = CK2 (h) (human (h), UniProt P68400 1-391)
CK2 (h), sequence (P68400 whole entry): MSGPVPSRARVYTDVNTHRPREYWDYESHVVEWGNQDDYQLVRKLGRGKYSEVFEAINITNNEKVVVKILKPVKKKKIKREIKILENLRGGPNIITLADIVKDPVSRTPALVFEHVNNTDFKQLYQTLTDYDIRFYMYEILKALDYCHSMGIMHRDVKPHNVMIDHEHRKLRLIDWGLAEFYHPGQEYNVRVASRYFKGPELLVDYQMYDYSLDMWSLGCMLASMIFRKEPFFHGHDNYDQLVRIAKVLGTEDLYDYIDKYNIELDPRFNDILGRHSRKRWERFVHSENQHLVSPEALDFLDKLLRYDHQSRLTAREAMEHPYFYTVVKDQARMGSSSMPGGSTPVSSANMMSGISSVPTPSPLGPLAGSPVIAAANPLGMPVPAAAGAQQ

ROCK-1 (h), sequence (Q13464 17-535 limits assumed): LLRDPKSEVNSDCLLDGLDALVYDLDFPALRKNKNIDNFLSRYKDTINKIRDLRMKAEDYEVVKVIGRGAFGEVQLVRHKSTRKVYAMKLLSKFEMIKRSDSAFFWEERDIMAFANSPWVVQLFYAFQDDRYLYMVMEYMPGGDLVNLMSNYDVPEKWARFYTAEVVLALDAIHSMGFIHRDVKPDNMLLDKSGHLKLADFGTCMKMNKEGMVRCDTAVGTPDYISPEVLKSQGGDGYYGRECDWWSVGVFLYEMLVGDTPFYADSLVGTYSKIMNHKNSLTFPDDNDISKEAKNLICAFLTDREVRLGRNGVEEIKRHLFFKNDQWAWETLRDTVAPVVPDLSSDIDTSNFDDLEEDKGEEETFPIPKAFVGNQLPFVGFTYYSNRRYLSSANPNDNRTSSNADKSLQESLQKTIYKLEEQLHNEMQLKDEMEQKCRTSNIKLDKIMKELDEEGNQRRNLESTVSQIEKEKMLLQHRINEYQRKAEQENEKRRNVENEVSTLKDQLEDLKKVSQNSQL

B1: FAKLAARLYRKALARQLGVAA (peptide)
peptide: FAKLAARLYRKALARQLGVAA
Profile-1 @ = 100 µm (kinase profiler assay) (ROCK-1 (h)): 25
Profile-1 @ = 100 µm (kinase profiler assay) (MKK6 (h)): 42
Profile-1 @ = 100 µm (kinase profiler assay) (JNK1α1 (h)): 91
Profile-1 @ = 100 µm (kinase profiler assay) (TrkA (h)): 17
Profile-1 @ = 100 µm (kinase profiler assay) (AMPK (r)): 101
Profile-1 @ = 100 µm (kinase profiler assay) (PKB β (h)): 16
Profile-1 @ = 100 µm (kinase profiler assay) (PKCδ (h)): 40
Profile-1 @ = 100 µm (kinase profiler assay) (CDKI/cyclinB (h)): 36
Profile-1 @ = 100 µm (kinase profiler assay) (MSK2 (h)): 24
Profile-1 @ = 100 µm (kinase profiler assay) (L1MK1 (h)): 92
Profile-1 @ = 100 µm (kinase profiler assay) (MEKI (h)): 68
Profile-1 @ = 100 µm (kinase profiler assay) (Src(1-530) (h)): 5
Profile-1 @ = 100 µm (kinase profiler assay) (PKG1β (h)): 15
Profile-1 @ = 100 µm (kinase profiler assay) (Rsk2 (h)): -1
Profile-1 @ = 100 µm (kinase profiler assay) (Lck (h)): 493
Profile-1 @ = 100 µm (kinase profiler assay) (Met (h)): 17
Profile-1 @ = 100 µm (kinase profiler assay) (Flt3 (h)): 14
Profile-1 @ = 100 µm (kinase profiler assay) (SAPK2 a (h)): 30
Profile-1 @ = 100 µm (kinase profiler assay) (PDGFRβ (h)): 92
Profile-1 @ = 100 µm (kinase profiler assay) (cKit (h)): 42
Profile-1 @ = 100 µm (kinase profiler assay) (CK2 (h)): 80
